Measurements published in US20250277018A1 (published 2025).

What was measured:
[1] = biological target: T1, Rat serum albumin; assay: ELISA
T1 chain: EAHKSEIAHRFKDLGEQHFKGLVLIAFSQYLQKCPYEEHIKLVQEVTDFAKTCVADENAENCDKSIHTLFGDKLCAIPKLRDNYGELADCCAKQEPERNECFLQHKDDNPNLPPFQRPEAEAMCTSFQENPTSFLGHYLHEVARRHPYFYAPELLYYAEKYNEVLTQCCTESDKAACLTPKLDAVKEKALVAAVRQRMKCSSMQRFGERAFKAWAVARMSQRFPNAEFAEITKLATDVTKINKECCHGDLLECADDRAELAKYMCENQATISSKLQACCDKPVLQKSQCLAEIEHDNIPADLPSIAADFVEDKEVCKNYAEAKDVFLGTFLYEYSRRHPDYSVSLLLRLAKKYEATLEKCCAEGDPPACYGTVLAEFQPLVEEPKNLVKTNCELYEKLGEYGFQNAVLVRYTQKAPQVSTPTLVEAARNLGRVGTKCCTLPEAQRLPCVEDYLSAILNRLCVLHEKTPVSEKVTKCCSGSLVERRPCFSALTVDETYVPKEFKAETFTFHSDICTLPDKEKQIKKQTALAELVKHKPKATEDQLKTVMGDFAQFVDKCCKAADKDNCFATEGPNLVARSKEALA

[2] = biological target: Murine serum albumin; assay: ELISA
Chain of Murine serum albumin (chain, as listed by the source): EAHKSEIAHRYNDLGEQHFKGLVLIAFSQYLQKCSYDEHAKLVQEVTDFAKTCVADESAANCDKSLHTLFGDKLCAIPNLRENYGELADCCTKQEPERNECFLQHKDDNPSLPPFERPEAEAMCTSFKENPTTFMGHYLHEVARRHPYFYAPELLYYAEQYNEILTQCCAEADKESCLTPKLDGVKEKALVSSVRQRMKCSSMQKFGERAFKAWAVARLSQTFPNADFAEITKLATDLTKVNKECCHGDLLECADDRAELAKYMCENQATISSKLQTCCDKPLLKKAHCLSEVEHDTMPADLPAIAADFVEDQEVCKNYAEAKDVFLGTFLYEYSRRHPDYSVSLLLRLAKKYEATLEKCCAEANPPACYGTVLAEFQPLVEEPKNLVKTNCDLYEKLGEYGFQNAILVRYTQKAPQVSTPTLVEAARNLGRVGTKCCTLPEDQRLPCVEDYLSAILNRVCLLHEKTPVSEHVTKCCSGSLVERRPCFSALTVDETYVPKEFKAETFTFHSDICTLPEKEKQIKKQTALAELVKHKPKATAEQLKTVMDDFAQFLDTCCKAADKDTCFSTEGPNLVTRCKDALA

[3] = biological target: T2, Cynomolgus monkey serum albumin; assay: ELISA
T2 chain: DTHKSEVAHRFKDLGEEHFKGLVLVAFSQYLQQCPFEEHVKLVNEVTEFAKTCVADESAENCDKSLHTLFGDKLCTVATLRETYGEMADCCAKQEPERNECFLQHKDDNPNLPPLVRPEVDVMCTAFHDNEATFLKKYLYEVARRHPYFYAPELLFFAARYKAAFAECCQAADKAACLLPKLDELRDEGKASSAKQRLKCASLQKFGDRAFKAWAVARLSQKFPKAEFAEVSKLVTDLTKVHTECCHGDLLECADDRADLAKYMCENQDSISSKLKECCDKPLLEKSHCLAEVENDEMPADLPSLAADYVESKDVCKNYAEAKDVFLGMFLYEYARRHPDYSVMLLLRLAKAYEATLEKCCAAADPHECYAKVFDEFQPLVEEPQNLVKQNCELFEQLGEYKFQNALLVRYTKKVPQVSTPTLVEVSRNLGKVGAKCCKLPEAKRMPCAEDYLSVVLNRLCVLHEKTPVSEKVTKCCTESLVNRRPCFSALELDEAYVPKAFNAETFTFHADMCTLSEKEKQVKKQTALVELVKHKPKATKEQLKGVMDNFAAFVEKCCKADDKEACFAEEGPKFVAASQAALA

[4] = biological target: Human serum albumin; assay: ELISA; pH 7.4
[5] = biological target: 4A01v5; assay: ELISA
[6] = biological target: 4A01v4; assay: ELISA
[7] = biological target: 4A01v3; assay: ELISA
[8] = biological target: 4A01v6; assay: ELISA
[9] = biological target: 4A01v1; assay: ELISA
[10] = biological target: 4A01v3-7; assay: ELISA
[11] = biological target: 4A01v3-8; assay: ELISA
[12] = biological target: 4A01v3-3; assay: ELISA
[13] = biological target: 4A01v3-4; assay: ELISA
[14] = biological target: 4A01v9; assay: ELISA
[15] = biological target: 4A01v3-1; assay: ELISA
[16] = biological target: 4A01v3-5; assay: ELISA

B1: cx5009, hz4A01v51 VHH-hIgG1-xELL-NNT-Fc (VHH)
VHH: EVQLVESGGGEVQPGGSLRLSCAASGFTFSTSGMVWVRQAPGKGLEWVSTISDDARITVYAESVKGRFTISRDNAKNTVYLQMNSLRAEDTAVYYCATYRAGSRIGSYEDYYRGQGTLVTVKP
Kd [1]: 0.234 nM
Kd [2]: 0.207 nM
Kd [3]: 0.189 nM

B2: cx12596 (bispecific antibody)
heavy: EVQLVESGGGLEQPGGSLRLSCAGSGFTFRDYAMTWVRQAPGKGLEWVSSISGSGGNTYYADSVKGRFTISRDNSKNTLYLQMNSLRAEDTAVYYCAKDRLSITIRPRYYGLDVWGQGTTVTVSSASTKGPSVFPLAPCSRSTSESTAALGCLVKDYFPEPVTVSWNSGALTSGVHTFPAVLQSSGLYSLSSVVTVPSSSLGTKTYTCNVDHKPSNTKVDKRVGGSGGSEVQLVESGGGEVQPGGSLRLSCAASGFTFSTSGMVWVRQAPGKGLEWVSTISDDARITVYAESVKGRFTISRDNAKNTVYLQMNSLRAEDTAVYYCATYRAGSRIGSYEDYYRGQGTLVTVKPGGGGDKTHTCPPCPAPGGPSVFLFPPKPKDTLMISRTPEVTCVVVDVSHEDPEVKFNWYVDGVEVHNAKTKPREEQYNSTYRVVSVLTVLHQDWLNGKEYKCKVSNKALPAPIEKTISKAKGQPREPQVYTLPPSRDELTKNQVSLTCLVKGFYPSDIAVEWESNGQPENNYKTTPPVLDSDGSFFLYSKLTVDKSRWQQGNVFSCSVMHEALHNHYTQKSLSLSP
light: DIVMTQSPLSLPVTPGEPASISCRSSQSLLYSIGYNYLDWYLQKSGQSPQLLIYLGSNRASGVPDRFSGSGSGTDFTLKISRVEAEDVGFYYCMQALQTPYTFGQGTKLEIKRTVAAPSVFIFPPSDEQLKSGTASVVCLLNNFYPREAKVQWKVDNALQSGNSQESVTEQDSKDSTYSLSSTLTLSKADYEKHKVYACEVTHQGLSSPVTKSENRGEC
Kd [4]: 0.0122 nM

B3: cx12595 (bispecific antibody)
heavy: EVQLVESGGGLEQPGGSLRLSCAGSGFTFRDYAMTWVRQAPGKGLEWVSSISGSGGNTYYADSVKGRFTISRDNSKNTLYLQMNSLRAEDTAVYYCAKDRLSITIRPRYYGLDVWGQGTTVTVSSASTKGPSVFPLAPCSRSTSESTAALGCLVKDYFPEPVTVSWNSGALTSGVHTFPAVLQSSGLYSLSSVVTVPSSSLGTKTYTCNVDHKPSNTKVDKRVGGSGGSEVQLVESGGGEVQPGGSLRLSCAASGFTFSTSGMVWVRQAPGKGLEWVSTISDDARITVYAESVKGRFTISRDNAKNTVYLQMNSLRAEDTAVYYCATYRAGSRIGSYEDYYRGQGTLVTVKPGGGGESKYGPPCPPCPAPEFLGGPSVFLFPPKPKDTLYISRTPEVTCVVVDVSQEDPEVQFNWYVDGVEVHNAKTKPREEQFNSTYRVVSVLTVLHQDWLNGKEYKCKVSNKGLPSSIEKTISKAKGQPREPQVYTLPPSQEEMTKNQVSLTCLVKGFYPSDIAVEWESNGQPENNYKTTPPVLDSDGSFFLYSRLTVDKSRWQEGNVFSCSVVHEALHNHYTQKSLSLSLG
light: B2 light
Kd [4]: 0.0326 nM

B4: cx12594 (bispecific antibody)
heavy: EVQLVESGGGLEQPGGSLRLSCAGSGFTFRDYAMTWVRQAPGKGLEWVSSISGSGGNTYYADSVKGRFTISRDNSKNTLYLQMNSLRAEDTAVYYCAKDRLSITIRPRYYGLDVWGQGTTVTVSSASTKGPSVFPLAPCSRSTSESTAALGCLVKDYFPEPVTVSWNSGALTSGVHTFPAVLQSSGLYSLSSVVTVPSSSLGTKTYTCNVDHKPSNTKVDKRVESKYGPPCPPCPAPEFLGGPSVFLFPPKPKDTLYISRTPEVTCVVVDVSQEDPEVQFNWYVDGVEVHNAKTKPREEQFNSTYRVVSVLTVLHQDWLNGKEYKCKVSNKGLPSSIEKTISKAKGQPREPQVYTLPPSQEEMTKNQVSLTCLVKGFYPSDIAVEWESNGQPENNYKTTPPVLDSDGSFFLYSRLTVDKSRWQEGNVFSCSVVHEALHNHYTQKSLSLSLGGSGGSEVQLVESGGGEVQPGGSLRLSCAASGFTFSTSGMVWVRQAPGKGLEWVSTISDDARITVYAESVKGRFTISRDNAKNTVYLQMNSLRAEDTAVYYCATYRAGSRIGSYEDYYRGQGTLVTVKP
light: B2 light
Kd [4]: 0.118 nM

B5: cx12583 (VHH)
chain: GGGGDKTHTCPPCPAPGGPSVFLFPPKPKDTLMISRTPEVTCVVVDVSHEDPEVKFNWYVDGVEVHNAKTKPREEQYNSTYRVVSVLTVLHQDWLNGKEYKCKVSNKALPAPIEKTISKAKGQPREPQVYTLPPSRDELTKNQVSLTCLVKGFYPSDIAVEWESNGQPENNYKTTPPVLDSDGSFFLYSKLTVDKSRWQQGNVFSCSVMHEALHNHYTQKSLSLSPGSGGGSEVQLVESGGGEVQPGGSLRLSCAASGFTFSTSGMVWVRQAPGKGLEWVSTISDDARITVYAESVKGRFTISRDNAKNTVYLQMNSLRAEDTAVYYCATYRAGSRIGSYEDYYRGQGTLVTVKP
Kd [4]: 0.126 nM

B6: cy (other)
chain: T2 chain
Kd [5]: 0.203 nM
Kd [6]: 0.247 nM
Kd [7]: 0.338 nM
Kd [8]: 0.225 nM
Kd [9]: 0.157 nM
Kd [10]: 0.118 nM
Kd [11]: 0.147 nM
Kd [12]: 0.142 nM
Kd [13]: 0.181 nM
Kd [14]: 0.117 nM
Kd [15]: 0.127 nM
Kd [16]: 0.126 nM

B7: cx12584 (VHH)
chain: GGGGDKTHTCPPCPAPGGPSVFLFPPKPKDTLMISRTPEVTCVVVDVSHEDPEVKFNWYVDGVEVHNAKTKPREEQYNSTYRVVSVLTVLHQDWLNGKEYKCKVSNKALPAPIEKTISKAKGQPREPQVYTLPPSRDELTKNQVSLTCLVKGFYPSDIAVEWESNGQPENNYKTTPPVLDSDGSFFLYSKLTVDKSRWQQGNVFSCSVMHEALHNHYTQKSLSLSPGGGSGGGSGGGSEVQLVESGGGEVQPGGSLRLSCAASGFTFSTSGMVWVRQAPGKGLEWVSTISDDARITVYAESVKGRFTISRDNAKNTVYLQMNSLRAEDTAVYYCATYRAGSRIGSYEDYYRGQGTLVTVKP
Kd [4]: 0.0813 nM
